From article PMC2171531

Target: GST-syntaxin-1 (UniProt P32851)
Assay: pull-down

Chain of GST-syntaxin-1 (P32851 1-265): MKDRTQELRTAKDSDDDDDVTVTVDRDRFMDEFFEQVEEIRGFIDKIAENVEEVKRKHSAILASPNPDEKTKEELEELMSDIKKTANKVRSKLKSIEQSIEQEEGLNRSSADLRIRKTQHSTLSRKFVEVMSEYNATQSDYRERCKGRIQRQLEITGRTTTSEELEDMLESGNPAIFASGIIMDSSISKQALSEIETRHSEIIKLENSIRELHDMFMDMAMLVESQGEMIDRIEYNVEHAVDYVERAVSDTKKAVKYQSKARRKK

MBP-tomosyn phosphorylated by PKA (natural protein)
Kd: 330 nM | percent of the total input bound: 20%

MBP-tomosyn-S724D (natural protein)
amount bound in comparison with MBP-tomosyn: 35%

MBP-tomosyn (nonphosphorylated form) (natural protein)
Kd: 60 nM | percent of the total input bound: 60%
